# Experimental data published in PMC3908897.
# B1: T. fusca OSBS (Thermobifida fusca YX; N71A) (protein)
# chain: MTGRAFAIPLRTRFRGITVREGMLVRGAAGWGEFSPFAEYGPRECARWWAACYEAAELGWPAPVRDTVPVAATVPAVGPEEAARIVASSGCTTAKVKVAERGQSEANDVARVEAVRDALGPRGRVRIDVNGAWDVDTAVRMIRLLDRFELEYVEQPCATVDELAEVRRRVSVPIAADESIRRAEDPLRVRDAEAADVVVLKVQPLGGVRAALRLAEECGLPVVVSSAVETSVGLAAGVALAAALPELPYACGLATLRLLHADVCDDPLLPVHGVLPVRRVDVSEQRLAEVEIDPAAWQARLAAARAAWEQVEREPGP
# B2: T. fusca OSBS (Thermobifida fusca YX; G252T) (protein)
# chain: MTGRAFAIPLRTRFRGITVREGMLVRGAAGWGEFSPFAEYGPRECARWWAACYEAAELGWPAPVRDTVPVNATVPAVGPEEAARIVASSGCTTAKVKVAERGQSEANDVARVEAVRDALGPRGRVRIDVNGAWDVDTAVRMIRLLDRFELEYVEQPCATVDELAEVRRRVSVPIAADESIRRAEDPLRVRDAEAADVVVLKVQPLGGVRAALRLAEECGLPVVVSSAVETSVGLAAGVALAAALPELPYACTLATLRLLHADVCDDPLLPVHGVLPVRRVDVSEQRLAEVEIDPAAWQARLAAARAAWEQVEREPGP
# B3: T. fusca OSBS (Thermobifida fusca YX; R126M) (protein)
# chain: MTGRAFAIPLRTRFRGITVREGMLVRGAAGWGEFSPFAEYGPRECARWWAACYEAAELGWPAPVRDTVPVNATVPAVGPEEAARIVASSGCTTAKVKVAERGQSEANDVARVEAVRDALGPRGRVMIDVNGAWDVDTAVRMIRLLDRFELEYVEQPCATVDELAEVRRRVSVPIAADESIRRAEDPLRVRDAEAADVVVLKVQPLGGVRAALRLAEECGLPVVVSSAVETSVGLAAGVALAAALPELPYACGLATLRLLHADVCDDPLLPVHGVLPVRRVDVSEQRLAEVEIDPAAWQARLAAARAAWEQVEREPGP
# B4: T. fusca OSBS (Thermobifida fusca YX; G252A) (protein)
# chain: MTGRAFAIPLRTRFRGITVREGMLVRGAAGWGEFSPFAEYGPRECARWWAACYEAAELGWPAPVRDTVPVNATVPAVGPEEAARIVASSGCTTAKVKVAERGQSEANDVARVEAVRDALGPRGRVRIDVNGAWDVDTAVRMIRLLDRFELEYVEQPCATVDELAEVRRRVSVPIAADESIRRAEDPLRVRDAEAADVVVLKVQPLGGVRAALRLAEECGLPVVVSSAVETSVGLAAGVALAAALPELPYACALATLRLLHADVCDDPLLPVHGVLPVRRVDVSEQRLAEVEIDPAAWQARLAAARAAWEQVEREPGP
# B5: T. fusca OSBS (Thermobifida fusca YX; F37A) (protein)
# chain: MTGRAFAIPLRTRFRGITVREGMLVRGAAGWGEFSPAAEYGPRECARWWAACYEAAELGWPAPVRDTVPVNATVPAVGPEEAARIVASSGCTTAKVKVAERGQSEANDVARVEAVRDALGPRGRVRIDVNGAWDVDTAVRMIRLLDRFELEYVEQPCATVDELAEVRRRVSVPIAADESIRRAEDPLRVRDAEAADVVVLKVQPLGGVRAALRLAEECGLPVVVSSAVETSVGLAAGVALAAALPELPYACGLATLRLLHADVCDDPLLPVHGVLPVRRVDVSEQRLAEVEIDPAAWQARLAAARAAWEQVEREPGP
# B6: T. fusca OSBS (Thermobifida fusca YX) (protein)
# chain: MTGRAFAIPLRTRFRGITVREGMLVRGAAGWGEFSPFAEYGPRECARWWAACYEAAELGWPAPVRDTVPVNATVPAVGPEEAARIVASSGCTTAKVKVAERGQSEANDVARVEAVRDALGPRGRVRIDVNGAWDVDTAVRMIRLLDRFELEYVEQPCATVDELAEVRRRVSVPIAADESIRRAEDPLRVRDAEAADVVVLKVQPLGGVRAALRLAEECGLPVVVSSAVETSVGLAAGVALAAALPELPYACGLATLRLLHADVCDDPLLPVHGVLPVRRVDVSEQRLAEVEIDPAAWQARLAAARAAWEQVEREPGP
# B7: T. fusca OSBS (Thermobifida fusca YX; R15A) (protein)
# chain: MTGRAFAIPLRTRFAGITVREGMLVRGAAGWGEFSPFAEYGPRECARWWAACYEAAELGWPAPVRDTVPVNATVPAVGPEEAARIVASSGCTTAKVKVAERGQSEANDVARVEAVRDALGPRGRVRIDVNGAWDVDTAVRMIRLLDRFELEYVEQPCATVDELAEVRRRVSVPIAADESIRRAEDPLRVRDAEAADVVVLKVQPLGGVRAALRLAEECGLPVVVSSAVETSVGLAAGVALAAALPELPYACGLATLRLLHADVCDDPLLPVHGVLPVRRVDVSEQRLAEVEIDPAAWQARLAAARAAWEQVEREPGP
# B8: E. coli OSBS (Escherichia coli K-12; A107N) (protein)
# chain: MRSAQVYRWQIPMDAGVVLRDRRLKTRDGLYVCLREGEREGWGEISPLPGFSQETWEEAQSVLLAWVNNWLAGDCELPQMPSVAFGVSCALAELTDTLPQAANYRANPLCNGDPDDLILKLADMPGEKVAKVKVGLYEAVRDGMVVNLLLEAIPDLHLRLDANRAWTPLKGQQFAKYVNPDYRDRIAFLEEPCKTRDDSRAFARETGIAIAWDESLREPDFAFVAEEGVRAVVIKPTLTGSLEKVREQVQAAHALGLTAVISSSIESSLGLTQLARIAAWLTPDTIPGLDTLDLMQAQQVRRWPGSTLPVVEVDALERLL
# B9: E. coli OSBS (Escherichia coli K-12; R20S) (protein)
# chain: MRSAQVYRWQIPMDAGVVLSDRRLKTRDGLYVCLREGEREGWGEISPLPGFSQETWEEAQSVLLAWVNNWLAGDCELPQMPSVAFGVSCALAELTDTLPQAANYRAAPLCNGDPDDLILKLADMPGEKVAKVKVGLYEAVRDGMVVNLLLEAIPDLHLRLDANRAWTPLKGQQFAKYVNPDYRDRIAFLEEPCKTRDDSRAFARETGIAIAWDESLREPDFAFVAEEGVRAVVIKPTLTGSLEKVREQVQAAHALGLTAVISSSIESSLGLTQLARIAAWLTPDTIPGLDTLDLMQAQQVRRWPGSTLPVVEVDALERLL
# B10: E. coli OSBS (Escherichia coli K-12; L109T) (protein)
# chain: MRSAQVYRWQIPMDAGVVLRDRRLKTRDGLYVCLREGEREGWGEISPLPGFSQETWEEAQSVLLAWVNNWLAGDCELPQMPSVAFGVSCALAELTDTLPQAANYRAAPTCNGDPDDLILKLADMPGEKVAKVKVGLYEAVRDGMVVNLLLEAIPDLHLRLDANRAWTPLKGQQFAKYVNPDYRDRIAFLEEPCKTRDDSRAFARETGIAIAWDESLREPDFAFVAEEGVRAVVIKPTLTGSLEKVREQVQAAHALGLTAVISSSIESSLGLTQLARIAAWLTPDTIPGLDTLDLMQAQQVRRWPGSTLPVVEVDALERLL
# B11: T. elongatus OSBS (Thermosynechococcus vestitus BP-1) (protein)
# chain: MRWQWRIYEEPLQEPLTTAQGVWRSRSGIYLRLEDEQGQVGYGEIAPLPGWGSETLNADIALCQQLPGHLTPEIMATIPEALPAAQFGFATAWQSVGRLPYRVRPWPICALLGSGQAALEQWQQSWQRGQTTFKWKVGVMSPEEEQAILKALLAALPPGAKLRLDANGSWDRATANRWFAWLDRHGNGKIEYVEQPLPPDQWQALLSLAQTVTTAIALDESVVSAAEVQRWVDRGWPGFFVIKTALFGDPDSLSLLLRRGLEPQRLVFSSALEGAIARTAIFHLLETWQPCHALGFGVDRWRSAPLLTTLTAYERLWERLDQ
# B12: T. elongatus OSBS (Thermosynechococcus vestitus BP-1; G295A) (protein)
# chain: MRWQWRIYEEPLQEPLTTAQGVWRSRSGIYLRLEDEQGQVGYGEIAPLPGWGSETLNADIALCQQLPGHLTPEIMATIPEALPAAQFGFATAWQSVGRLPYRVRPWPICALLGSGQAALEQWQQSWQRGQTTFKWKVGVMSPEEEQAILKALLAALPPGAKLRLDANGSWDRATANRWFAWLDRHGNGKIEYVEQPLPPDQWQALLSLAQTVTTAIALDESVVSAAEVQRWVDRGWPGFFVIKTALFGDPDSLSLLLRRGLEPQRLVFSSALEGAIARTAIFHLLETWQPCHALAFGVDRWRSAPLLTTLTAYERLWERLDQ
# Substrate: O=C(O)CCC(=O)C1=CC=C[C@@H](O)[C@@H]1C(=O)O
# Assay: purified protein
# Type: biochemical, Thermobifida fusca
# Settings: 50 mM Tris pH 8.0, 0.1 mM MnCl2, 25°C
Protein,Km,kcat,kcat/Km
B1,322 ± 56 µM,10 ± 0.7 s⁻¹,31000 M⁻¹ s⁻¹
B2,668 ± 72 µM,13 ± 0.7 s⁻¹,19000 M⁻¹ s⁻¹
B3,470 ± 42 µM,104 ± 4 s⁻¹,220000 M⁻¹ s⁻¹
B4,86 ± 6 µM,16 ± 0.3 s⁻¹,190000 M⁻¹ s⁻¹
B5,666 ± 151 µM,163 ± 19 s⁻¹,250000 M⁻¹ s⁻¹
B6,182 ± 22 µM,122 ± 4.6 s⁻¹,670000 M⁻¹ s⁻¹
B7,7 ± 1.4 µM,0.6 ± 0.02 s⁻¹,86000 M⁻¹ s⁻¹

# Substrate: O=C(O)CCC(=O)C1=CC=C[C@@H](O)[C@@H]1C(=O)O
# Assay: purified protein
# Type: biochemical, Escherichia coli
# Settings: 50 mM Tris pH 8.0, 0.1 mM MnCl2, 25°C
# Remark: another data set of the same source
Protein,Km,kcat,kcat/Km
B8,109 ± 17 µM,32 ± 1.9 s⁻¹,290000 M⁻¹ s⁻¹
B9,22 ± 0.1 µM,0.5 ± 0.1 s⁻¹,23000 M⁻¹ s⁻¹
B10,83 ± 17 µM,3.6 ± 0.3 s⁻¹,43000 M⁻¹ s⁻¹

# Substrate: O=C(O)CCC(=O)C1=CC=C[C@@H](O)[C@@H]1C(=O)O
# Assay: purified protein
# Type: biochemical, Thermosynechococcus vestitus
# Settings: 50 mM Tris pH 8.0, 0.1 mM MnCl2, 25°C
# Remark: another data set of the same source
Protein,Km,kcat,kcat/Km
B11,78 ± 17 µM,80 ± 4 s⁻¹,1e+06 M⁻¹ s⁻¹
B12,304 ± 82 µM,4 ± 0.4 s⁻¹,13000 M⁻¹ s⁻¹
